The source of these data is paper PMC11064669.

For assay [1], the target named is LC3B residues 1-120 F52A/L53A (UniProt Q9GZQ8). Put plainly: ITC.
In the next assay the target is LC3B residues 1-120 WT (UniProt Q9GZQ8). Put plainly: ITC. (In general: ITC needs no label: the signal is the heat of the interaction.)

For orientation: Kd means the equilibrium constant for the complex coming apart. A higher Kd goes with a looser complex. As usually defined, the stoichiometry N is a count of units in the complex or per binding partner. As to “tepsin LIR motif peptide (residues 185-193)”, the Kd in assay [1] is over 300 µM. Besides, in the assay with LC3B residues 1-120 WT, the Kd came to 44.4 µM and the stoichiometry N is 0.523.
